The supplement of paper PMC9112550, “Optimization of the antimicrobial peptide Bac7 by deep mutational scanning” (BMC Biology, 2022)

These sequences were tested on Escherichia coli TOP10 (assay: shrunken log2 fold change of peptide-encoding DNA abundance (4.5 h post-induction vs induction); higher = less antimicrobial activity (less host growth inhibition)). Conditions: time post-induction: 4.5 h; library: site-saturation at positions 5, 18, 19, 20.
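Note: peptides expressed intracellularly from a pBAD plasmid library in pooled LB shake-flask culture, induced with 0.3% L-arabinose, DNA abundance read by NGS, three biological replicates, DESeq2 with apeglm shrinkage.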

Sequence	shrunken log2 fold change
RRIRYRPPRLPRPRPRPTLFPRP	-0.145
RRIRGRPPRLPRPRPRPCQLPRP	-0.327
RRIRFRPPRLPRPRPRPAKIPRP	0.117
RRIRPRPPRLPRPRPRPVGVPRP	0.52
RRIRCRPPRLPRPRPRPPMTPRP	0.155
RRIRVRPPRLPRPRPRPDYNPRP	-0.554
RRIRARPPRLPRPRPRPKGPPRP	0.212
RRIRHRPPRLPRPRPRPWGAPRP	-0.0102
RRIRIRPPRLPRPRPRPDLCPRP	-0.101
RRIRKRPPRLPRPRPRPFEMPRP	0.911
RRIRRRPPRLPRPRPRPLLYPRP	0.138
RRIRTRPPRLPRPRPRPWYHPRP	-0.464
RRIRFRPPRLPRPRPRPNEIPRP	0.232
RRIRIRPPRLPRPRPRPRNHPRP	-0.354
RRIRDRPPRLPRPRPRPPHYPRP	0.0761
RRIRSRPPRLPRPRPRPHGFPRP	-0.0309
RRIRQRPPRLPRPRPRPRDMPRP	-0.046
RRIRMRPPRLPRPRPRPMLAPRP	2.84
RRIRCRPPRLPRPRPRPHRRPRP	-0.167
RRIRSRPPRLPRPRPRPAVYPRP	-0.585
RRIRGRPPRLPRPRPRPGPEPRP	0.954
RRIRSRPPRLPRPRPRPTNCPRP	0.0777

Sequence	shrunken log2 fold change
RRIRERPPRLPRPRPRPTSPPRP	-0.185
RRIRARPPRLPRPRPRPLVWPRP	0.774
RRIRVRPPRLPRPRPRPHQIPRP	0.12
RRIRARPPRLPRPRPRPEPEPRP	0.967
RRIRKRPPRLPRPRPRPWMDPRP	0.0169
RRIRMRPPRLPRPRPRPKNWPRP	0.671
RRIRRRPPRLPRPRPRPNTFPRP	0.085
RRIRHRPPRLPRPRPRPKHWPRP	0.26
RRIRFRPPRLPRPRPRPLQEPRP	-0.203
RRIRERPPRLPRPRPRPNRPPRP	-0.123
RRIRGRPPRLPRPRPRPLPPPRP	1.19
RRIRHRPPRLPRPRPRPVKFPRP	-0.0191
RRIRFRPPRLPRPRPRPCCWPRP	0.148
RRIRSRPPRLPRPRPRPDQGPRP	-0.196
RRIRVRPPRLPRPRPRPDDCPRP	-0.197
RRIRLRPPRLPRPRPRPPHTPRP	0.26
RRIRARPPRLPRPRPRPGIAPRP	0.331
RRIRNRPPRLPRPRPRPYYNPRP	-1.49
RRIRARPPRLPRPRPRPVWTPRP	0.527
RRIRVRPPRLPRPRPRPYWVPRP	-0.0928
RRIRRRPPRLPRPRPRPFKEPRP	0.00168
RRIRYRPPRLPRPRPRPTNHPRP	-0.709

Sequence	shrunken log2 fold change
RRIRGRPPRLPRPRPRPLQPPRP	0.991
RRIRWRPPRLPRPRPRPAEVPRP	0.204
RRIRHRPPRLPRPRPRPKYMPRP	-0.746
RRIRNRPPRLPRPRPRPIMTPRP	-0.269
RRIRCRPPRLPRPRPRPSMRPRP	0.303
RRIRRRPPRLPRPRPRPQLRPRP	0.213
RRIRPRPPRLPRPRPRPDQMPRP	0.196
RRIRLRPPRLPRPRPRPMFHPRP	-0.681
RRIRCRPPRLPRPRPRPRTNPRP	0.0761
RRIRLRPPRLPRPRPRPVRIPRP	0.115
RRIRYRPPRLPRPRPRPYLFPRP	-0.687
RRIRIRPPRLPRPRPRPTFGPRP	-0.28
RRIRTRPPRLPRPRPRPKEMPRP	-0.0567
RRIRMRPPRLPRPRPRPKYKPRP	-0.0345
RRIRFRPPRLPRPRPRPHQKPRP	-0.0745
RRIRWRPPRLPRPRPRPYRIPRP	-0.209
RRIRCRPPRLPRPRPRPERVPRP	0.361
RRIRPRPPRLPRPRPRPEKGPRP	0.321
RRIRQRPPRLPRPRPRPPPQPRP	0.712
RRIRYRPPRLPRPRPRPMRHPRP	-0.0913
RRIRQRPPRLPRPRPRPWDAPRP	-0.0479
RRIRGRPPRLPRPRPRPQHDPRP	-0.000778

Sequence	shrunken log2 fold change
RRIRQRPPRLPRPRPRPNWHPRP	0.141
RRIRKRPPRLPRPRPRPISDPRP	-0.0768
RRIRQRPPRLPRPRPRPRANPRP	0.367
RRIRMRPPRLPRPRPRPTYHPRP	-0.242
RRIRWRPPRLPRPRPRPDGYPRP	-0.0244
RRIRERPPRLPRPRPRPQIVPRP	-0.108
RRIRDRPPRLPRPRPRPFKVPRP	-0.0463
RRIRQRPPRLPRPRPRPHITPRP	-1.1
RRIRARPPRLPRPRPRPDRSPRP	-0.0282
RRIRCRPPRLPRPRPRPHMVPRP	-0.149
RRIRHRPPRLPRPRPRPPKQPRP	-0.00419
RRIRRRPPRLPRPRPRPECMPRP	0.921
RRIRARPPRLPRPRPRPTPRPRP	1.5
RRIRSRPPRLPRPRPRPIEDPRP	0.0359
RRIRIRPPRLPRPRPRPDMDPRP	-0.122
RRIRGRPPRLPRPRPRPCDEPRP	0.566
RRIRMRPPRLPRPRPRPECVPRP	2.97
RRIRHRPPRLPRPRPRPDYPPRP	-0.111
RRIRTRPPRLPRPRPRPCDAPRP	0.0216
RRIRSRPPRLPRPRPRPCDAPRP	-0.122
RRIRSRPPRLPRPRPRPCHHPRP	-0.179
RRIRHRPPRLPRPRPRPRHAPRP	0.164

Sequence	shrunken log2 fold change
RRIRMRPPRLPRPRPRPASQPRP	0.174
RRIRMRPPRLPRPRPRPKNPPRP	0.145
RRIRMRPPRLPRPRPRPDAFPRP	1.47
RRIRPRPPRLPRPRPRPHEGPRP	0.0172
RRIRGRPPRLPRPRPRPIEKPRP	0.942
RRIRHRPPRLPRPRPRPLALPRP	-0.563
RRIRSRPPRLPRPRPRPHPKPRP	0.12
RRIRDRPPRLPRPRPRPTNLPRP	-0.182
RRIRARPPRLPRPRPRPKQLPRP	0.155
RRIRERPPRLPRPRPRPTNIPRP	-0.905
RRIRKRPPRLPRPRPRPFAQPRP	0.177
RRIRGRPPRLPRPRPRPSYDPRP	-0.0196
RRIRERPPRLPRPRPRPKQFPRP	-0.0933
RRIRQRPPRLPRPRPRPAGSPRP	0.0285
RRIRMRPPRLPRPRPRPDNAPRP	-0.267
RRIRSRPPRLPRPRPRPMQRPRP	0.281
RRIRMRPPRLPRPRPRPAWRPRP	0.533
RRIRHRPPRLPRPRPRPHYDPRP	-0.257
RRIRLRPPRLPRPRPRPFFSPRP	-0.0767
RRIRRRPPRLPRPRPRPGKRPRP	0.363
RRIRSRPPRLPRPRPRPHRHPRP	-0.0713
